This is an account of results in article PMC5964521 (Infection and Immunity, 2018).

As usually defined, the EC50 is the concentration at which the effect is half-maximal.

Common to all, as to assay: ELISA
Common to all, as to conditions: both partners purified
(In an ELISA, binding on a coated surface is turned into a signal by an enzyme label.)

The target of assay [1] is pertussis toxin (PTx) holotoxin, native (Bordetella pertussis, strain  …, UniProt P04977;P04978;P04979;P0A3R5;P04981).
Assay [2] addresses T1, PTx B oligomer (Bordetella pertussis, strain  …, UniProt P04978;P04979;P0A3R5;P04981).
Assay [3] concerns the target pertussis toxin (native PTx holotoxin) (Bordetella pertussis, strain  …, UniProt P04977;P04978;P04979;P0A3R5;P04981).
Assay [4] deals with PTx S1-220 (soluble, truncated recombinant S1 subunit) (Bordetella pertussis, strain  …, UniProt P04977).
Assay [5] concerns the target T1, PTx B oligomer. The source holds these as a separate data set.

B1: biotinylated antibody A8, recombinant human IgG1 (antibody, V domains shown)
VH: QVQLVESGAEVKKPGASVKVSCKTSGYTFSSYGITWVRQAPGQGLEWMGWISAYNGDTNYADSVKGRVTMTTDTSTSTAYMELRSLRFDDTAVYYCARDTSFAPSGYGFDISGQGTTVTVSS
VL: DIQLTQSPSSLSASVGDRVTITCRASQGIRHELAWYQQKPGKAPQRLIYAASSLQSGVPSRFSGSGSGTDFTLTINSLQPEDSATYYCLQVNSYPRTFGQGTRVDIK
As to B1, the EC50 in assay [1] came to 0.65 nM.

B2: antibody A8 (antibody, V domains shown)
VH: QVQLVESGAEVKKPGASVKVSCKTSGYTFSSYGITWVRQAPGQGLEWMGWISAYNGDTNYADSVKGRVTMTTDTSTSTAYMELRSLRFDDTAVYYCARDTSFAPSGYGFDISGQGTTVTVSS
VL: DIQLTQSPSSLSASVGDRVTITCRASQGIRHELAWYQQKPGKAPQRLIYAASSLQSGVPSRFSGSGSGTDFTLTINSLQPEDSATYYCLQVNSYPRTFGQGTRVDIK
Turning to B2, in assay [2], the binding result is recorded as “no binding”. Besides, the EC50 in assay [3] came out at 0.15 nM; in assay [4], 0.02 nM.

B3: biotinylated antibody E12, recombinant human IgG1 (antibody, V domains shown)
VH: EVQLVESGGDLVQPGGSLRLSCEASGFTFSNYAMSWVRQAPGKGLEWVSGTSGSGGSTYYADSVKGRFTLSRDNSKNTLYLQMNSLRAEDTAVYYCAKDREVLRFFLLPYYFDSWGQGTLVTVSS
VL: DIVMTQSPGSLSLSPGERATLSCRASQSVSSDYVAWYQQKPGQAPRLLIFDASTRATGIPDRFSGSGSGTDFTLTIGRLEPEDFAVYYCQQYGNSPLTFGGGAKVEIK
In assay [1], B3 came in with an EC50 of 0.56 nM.

B4: antibody E12 (antibody, V domains shown)
VH: EVQLVESGGDLVQPGGSLRLSCEASGFTFSNYAMSWVRQAPGKGLEWVSGTSGSGGSTYYADSVKGRFTLSRDNSKNTLYLQMNSLRAEDTAVYYCAKDREVLRFFLLPYYFDSWGQGTLVTVSS
VL: DIVMTQSPGSLSLSPGERATLSCRASQSVSSDYVAWYQQKPGQAPRLLIFDASTRATGIPDRFSGSGSGTDFTLTIGRLEPEDFAVYYCQQYGNSPLTFGGGAKVEIK
Turning to B4, in assay [2], the binding result is reported as “no binding”. Besides, the concentration for a half-maximal effect (EC50) in assay [3] was determined as 0.13 nM; in assay [4] it was 0.05 nM.

B5: biotinylated antibody A12, recombinant human IgG1 (antibody, V domains shown)
VH: QVTLKESGGGLVKPGGSLRLSCAASGFTFTDYYMTWIRQAPGKGLEWVSCVGSSGTYTNYAQNVQGRFTISRDNAKNSLYLQMNSLRTEDTAVYYCARVTGSGNFYGSYHYYYMDVWGKGTMVTVSS
VL: EVVLTQSPATLSLSPGKKATLSCRASQSVSNYLAWYQQKPGQSPRLLIFDASKRAAGIPARFSGSGSGTDFTLTISSLEPEDFAVYYCQQRTNWLTFGGGTKVEIK
As for B5, the EC50 in assay [1] worked out at 0.24 nM.

B6: antibody A12 (antibody, V domains shown)
VH: QVTLKESGGGLVKPGGSLRLSCAASGFTFTDYYMTWIRQAPGKGLEWVSCVGSSGTYTNYAQNVQGRFTISRDNAKNSLYLQMNSLRTEDTAVYYCARVTGSGNFYGSYHYYYMDVWGKGTMVTVSS
VL: EVVLTQSPATLSLSPGKKATLSCRASQSVSNYLAWYQQKPGQSPRLLIFDASKRAAGIPARFSGSGSGTDFTLTISSLEPEDFAVYYCQQRTNWLTFGGGTKVEIK
With B6, the binding result in assay [2] is “no binding”. In assay [3], this molecule returned an EC50 of 0.1 nM.

B7: biotinylated antibody H5, recombinant human IgG1 (antibody, V domains shown)
VH: QVQLVESGPGLVKPSETLSLTCTVSGASVSSGTYYWSWIRQPPGKGLEWIGYSYYTGSSDSNASLKSRVTLSIDTSRNLLSLKLTSVTAADTAVYYCARDRRKVRGVWAGYSGMDVWGPGTTVTVSS
VL: EIVMTQSPSSLSASVGDRVTITCQASQEITNYLNWYQQKPGKAPKLLIYDASHLETGVPSRFSGSGSGTDFSFTISSLQPEDIATYYCQQYDDFPWGGVTFGGGTKVEIK
As to B7, the response in assay [1] was half-maximal at 0.06 nM (EC50).

B8: antibody H5 (antibody, V domains shown)
VH: QVQLVESGPGLVKPSETLSLTCTVSGASVSSGTYYWSWIRQPPGKGLEWIGYSYYTGSSDSNASLKSRVTLSIDTSRNLLSLKLTSVTAADTAVYYCARDRRKVRGVWAGYSGMDVWGPGTTVTVSS
VL: EIVMTQSPSSLSASVGDRVTITCQASQEITNYLNWYQQKPGKAPKLLIYDASHLETGVPSRFSGSGSGTDFSFTISSLQPEDIATYYCQQYDDFPWGGVTFGGGTKVEIK
For the molecule B8, the concentration giving a half-maximal response (EC50) came to 0.11 nM in assay [5] and 0.02 nM in assay [3].

B9: biotinylated antibody D8, recombinant human IgG1 (antibody, V domains shown)
VH: QITLRESGAEVTKPGSSVKVSCKASGGTFGSYGIRWVRQAPGQGLEWMGGIIPMFGTANYAQRFQGRVTITADKSTSTAYMELSSLKSEDTAVYYCARENSIVGANWFDPWGQGTLVTVSS
VL: EIVMTQSPSSLSASVGDRVTFTCRASQSISTYLNWYQQKPGKAPTLLIYAASTLRSGVPSRFSGSGSGTDFTLTISSLQPVDFATYFCQQSYSSPYTFGQGTTLEIK
For the molecule B9, the EC50 in assay [1] was 0.76 nM.

B10: antibody D8 (antibody, V domains shown)
VH: QITLRESGAEVTKPGSSVKVSCKASGGTFGSYGIRWVRQAPGQGLEWMGGIIPMFGTANYAQRFQGRVTITADKSTSTAYMELSSLKSEDTAVYYCARENSIVGANWFDPWGQGTLVTVSS
VL: EIVMTQSPSSLSASVGDRVTFTCRASQSISTYLNWYQQKPGKAPTLLIYAASTLRSGVPSRFSGSGSGTDFTLTISSLQPVDFATYFCQQSYSSPYTFGQGTTLEIK
Turning to B10, the results for the EC50 in assay [5] and in assay [3] were 0.78 nM and 0.14 nM, respectively.
